Measurements taken from US8217161B2, “Methods of inhibiting multiple cytochrome P450 genes with siRNA” (Clemson University Research Foundation, priority 2008, dated 2012).
Read-outs that look alike come from different tables or passages of the source.

What was measured:
[1] = system: Cyp2b-knockdown mice; settings: mouse, in vivo
[2] = system: Cyp2b-knockdown mice; assay: Chlorpyrifos toxicity in Cyp2b-knockdown mice; format: in vivo, mouse; settings: 10 mg/kg ip
Experimental: Chlorpyrifos: Similar to parathion, chlorpyrifos is an organophosphate insecticide that activates CAR, but chlorpyrifos is more toxic to wild-type mice. Initial toxicity is outwardly shown by mucous discharge from the eyes and later by reduced activity or complete lethargy, similar to other acetylcholinesterase inhibitors. Mice are injected ip with 10 mg/kg of chlorpyrifos and watched for behavioral changes. Mice showing toxicity are immediately euthanized to avoid unnecessary distress or pain. Statistical differences are determined using a Fisher's 2×2 test (StatView®, SAS Institute, Cary, N.C.).

[3] = system: Cyp2b-knockdown mice; settings: 75 mg/kg ip, observed 30 minutes
Experimental: Strychnine: Strychnine is a Cyp2b-inducer (Oguri et al., Arch. Biochem. Biophys. 287:105 (1991); Yamada et al., Arch. Biochem. Biophys. 299:248 (1992)) and therefore a potential CAR agonist. Strychnine is administered ip (75 mg/kg in saline) and observed for 30 minutes. Latency time to the first convulsions and number of animals showing convulsion is noted. […] Statistical analysis is performed using Fisher's 2×2 tests.

[4] = system: Cyp2b9 mRNA; assay: Q-PCR of Cyp2b9 mRNA in TCPOBOP-induced primary mouse hepatocytes transduced with lentiviral shRNA constructs; format: cell-based
Experimental: (§1) Q-PCR is performed to determine the efficacy of shRNA knockdown of the Cyp2b gene subfamily. Total RNA is isolated using a modified guanidinium thiocyanate-phenol-chloroform extraction protocol with TRI-reagent (Sigma, St. Louis, Mo.) according to the manufacturer's specifications followed by DNAse (Promega Corporation, Madison Wis.) treatment to remove residual genomic DNA. RNA is quantified spectrophotometrically and stored at −80° C. Reverse transcription is performed to create cDNA using MMLV-RT, a dNTP mixture, and random decamers. cDNA is stored at −20° C. Q-PCR is performed as described previously (Roling et al., Mar. Environ. Res. 57:377 (2004)). Briefly, to generate a standard curve and determine PCR efficiency, cDNA is combined and a 2×, 1:1, 1:10, 1:100, and 1:1000 dilution made. […] Amplifications are performed in triplicate using a 96-well MyiQ™ Real-Time PCR Detection System (Bio-Rad) with 0.25× SybrGreen as the fluorescent double strand-intercalating agent to quantify gene expression. The advantage of Q-PCR is having enough material to investigate a decrease of several Cyp2b isoforms as well as confirm that other P450 subfamilies are unaffected (Cyp3a, 2c).
(§2) Q-PCR results are normalized to the expression of the two housekeeping genes, β-Actin and 18S rRNA. A minimum of forty cycles is run on all real time samples to ensure a log based growth curve. Quantification is done by taking the efficiency curve of the Q-PCR reaction to the power of the threshold cycle (Ct). Samples are normalized to reference genes (β-actin and 18S rRNA) quantified for each sample. The formula for calculating normalized gene expression is NE={Eref}^Ct-ref/{Etarget}^Ct-target where NE is normalized gene expression, E is the efficiency of amplification for a particular gene, Ct is the threshold cycle, ref is the housekeeping gene (β-actin and 18S rRNA), and target is the gene of interest (Muller et al., Biotechniques 32:1372 (2002)).
(§3) The efficacy of the Cyp2b-KD2 and Cyp2b-KD3 lentiviral constructs to repress the expression of the Cyp2b subfamily members, Cyp2b9 and Cyp2b10 was tested using primary mouse hepatocytes. Primary mouse hepatocytes were plated in 6-well plates, treated with the CAR activator TCPOBOP to induce Cyp2b subfamily members (especially Cyp2b10) and then infected with either scrambled, Cyp2b-KD2 or Cyp2b-KD3 at a multiplicity of infection (MOI) of 20 and/or 5. The percentage of cells infected based on the presence of green fluorescence using fluorescent microscopy was approximately 65-80+% in KD2 transduced cells at a MOI of 5 and a about 55-70% in KD3 transduced cells at a MOI of 5.

[5] = system: Cyp2b10 mRNA; assay: Q-PCR of Cyp2b10 mRNA in TCPOBOP-induced primary mouse hepatocytes transduced with lentiviral shRNA constructs; format: cell-based; settings: for reduction of Cyp2b10 expression: MOI 20 and/or 5, vs scrambled lentivirus
Experimental: as §1, §2, §3

[6] = system: primary mouse hepatocytes; assay: Percentage of cells infected, by green fluorescence microscopy; format: cell-based; settings: MOI of 5
Experimental: as §3

[7] = TCPOBOP-treated primary mouse hepatocytes

| Molecule | Cyp2b9 expression relative to cells treated with the scrambled shRNA (in words) [4] | Cyp2b10 expression relative to cells treated with the scrambled shRNA (in words) [5] | reduction of Cyp2b10 expression [5, 7] | percentage of cells infected based on green fluorescence [6] | further results |
| --- | --- | --- | --- | --- | --- |
| CC(=O)Nc1ccc(O)cc1 [acetaminophen] |  |  |  |  | toxicity in TCPOBOP-treated mice [1]: greatest amount of toxicity |
| CCOP(=S)(OCC)Oc1nc(Cl)c(Cl)cc1Cl [chlorpyrifos] |  |  |  |  | sensitivity as compared to wild-type mice [2]: decreased sensitivity |
| O=C1C[C@@H]2OCC=C3CN4CC[C@]56c7ccccc7N1[C@H]5[C@H]2[C@H]3C[C@H]46 [strychnine] |  |  |  |  | protection from convulsions [3]: protection |
| Cyp2b-KD3: lentiviral shRNA construct targeting mouse Cyp2b subfamily; siRNA sequence CAGGAAAGCGCATTTGTCTTG (nucleic acid) DNA: GGATCCCGCAAGACAAATGCGCTTTCCTGTTGATATCCGCAGGAAAGCGCATTTGTCTTGTTTTTTCCAACTCGAG | not reduced | only KD2 reduced | 50% | 55-70% | Cyp2b9 expression relative to cells treated with the scrambled shRNA (in words) ([4]; listed as KD3): reduced |
| scrambled-shRNA: control shRNA construct with scrambled sequence that does not recognize any murine mRNAs (nucleic acid) GGATCCCGACGATTCGAGGCGCAGTGATTTGATATCCGATCACTGCTCCTCGAATCGTCTTTTTTCCAACTCGAG |  |  |  |  | Cyp2b9 expression relative to uninfected cells (in words) [4, 7]: did not reduce; Cyp2b10 expression relative to uninfected cells (in words) [5, 7]: did not reduce |
| Cyp2b-KD2: lentiviral shRNA construct targeting mouse Cyp2b subfamily; siRNA sequence AAGAACACTGAGGTGTACCCC (nucleic acid) DNA: GGATCCCAAGAACACTGAGGTGTACCCCTTGATATCCGGGGGTACACCTCAGTGTTCTTTTTTTTCCAACTCGAG | reduced | reduced | 75-98% | 65-80% | reduction of Cyp2b9 expression ([4]; TCPOBOP-treated primary mouse hepatocytes, MOI 20 and/or 5, vs scrambled lentivirus): 75-98% |
